Source: patent US20030148956A1 (PROCTER AND GAMBLE, published 2003)
Ends that are not written are not given here.

T1: CRF2R
T1 sequence (Q13324 whole entry, species assumed, looked up): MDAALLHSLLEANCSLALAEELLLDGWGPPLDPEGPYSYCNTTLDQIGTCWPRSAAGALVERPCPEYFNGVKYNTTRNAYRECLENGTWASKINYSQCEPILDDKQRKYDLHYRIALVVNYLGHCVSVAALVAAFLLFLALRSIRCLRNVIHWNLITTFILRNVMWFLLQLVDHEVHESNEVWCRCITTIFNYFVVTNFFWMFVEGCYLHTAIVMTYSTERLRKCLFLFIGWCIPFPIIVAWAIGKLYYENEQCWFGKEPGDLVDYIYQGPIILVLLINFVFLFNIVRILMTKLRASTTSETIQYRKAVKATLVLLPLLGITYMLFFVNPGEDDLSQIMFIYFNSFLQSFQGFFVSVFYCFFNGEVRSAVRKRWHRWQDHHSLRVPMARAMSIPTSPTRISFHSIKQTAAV


Experiments:
CRF1R = experiment: cell-based or functional assay
CRF2R = molecular target: T1, CRF2R; experiment: cell-based or functional assay

| Binder | CRF1R EC50 (CRF1R) [nM] | CRF1R Emax (CRF1R) [%] | CRF2R EC50 (CRF2R) [nM] | CRF2R Emax (CRF2R) [%] |
| --- | --- | --- | --- | --- |
| IVLSLDVPIGLLQELLEMARAEQLAQQAHSNRKLMEII-NH2 [SEQ ID NO 1] | 783 | 64 | 31.5 | 10 |
| ZGPPISIDLPLYLLRKMIEIEKQEKEKQQAANNRLLLDT (C-terminal amide) [SEQ ID NO 81] | 60.9 | 81 | 4.3 | 73 |
| ZGPPISIDLPDYLLRKMIEIEKQEKEKQQAANNRLLLDTI (C-terminal amide) [SEQ ID NO 54] | 1000 | 10 | 100 | 11 |
| ZGPPISIDLPTYLLRKMIEIEKQEKEKQQAANNRLLLDTI (C-terminal amide) [SEQ ID NO 70] | > 100 | 8 | 18.2 | 82 |
| ZGPPISIDLPFGLLRKMIEIEKQEKEKQQAANNRLLLDTI (C-terminal amide) [SEQ ID NO 68] | > 100 | 33 | 38.5 | 74 |
| ZGPPISIDLPTGLLRKMIEIEKQEKEKQQAANNRLLLDTI (C-terminal amide) [SEQ ID NO 73] | > 100 | 11 | > 100 | 11 |
| ZGPPISIDLPNYLLRKMIEIEKQEKEKQQAANNRLLLDTI (C-terminal amide) [SEQ ID NO 64] | 68.9 | 57 | 63.3 | 94 |
| ZGPPISIDLPTALLRKMIEIEKQEKEKQQAANNRLLLDTI (C-terminal amide) [SEQ ID NO 61] | > 100 | 12 | > 100 | 89 |
| ZGPPISIDLPTELLRKMIEIEKQEKEKQQAANNRLLLDTI (C-terminal amide) [SEQ ID NO 71] | > 100 | 6 | 94.8 | 56 |
| ZGPPISIDLPPYLLRKMIEIEKQEKEKQQAANNRLLLDTI (C-terminal amide) [SEQ ID NO 57] | > 100 | 12 | > 100 | 46 |
| ZGPPISIDLPFHLLRKMIEIEKQEKEKQQAANNRLLLDTI (C-terminal amide) [SEQ ID NO 69] | 34.5 | 88 | 5.85 | 81 |
| ZGPPISIDLPLQLLRKMIEIEKQEKEKQQAANNRLLLDTI (C-terminal amide) [SEQ ID NO 80] | > 100 | 55 | 6.53 | 88 |
| ZGPPISIDLPIHLLRKMIEIEKQEKEKQQAANNRLLLDTI (C-terminal amide) [SEQ ID NO 77] | > 100 | 5 | 43.4 | 100 |
| ZGPPISIDLPTQLLRKMIEIEKQEKEKQQAANNRLLLDTI (C-terminal amide) [SEQ ID NO 72] | > 100 | 4 | > 100 | 55 |
| ZGPPISIDLPFELLRKMIEIEKQEKEKQQAANNRLLLDTI (C-terminal amide) [SEQ ID NO 67] | 44.2 | 96 | 10 | 50 |
| ZGPPISIDLPFYLLRKMIEIEKQEKEKQQAANNRLLLDTI (C-terminal amide) [SEQ ID NO 85] | 11 | 84 | 2.34 | 100 |

| Binder | CRF1R EC50 (CRF1R) [nM] | CRF1R Emax (CRF1R) [%] | CRF2R EC50 (CRF2R) [nM] | CRF2R Emax (CRF2R) [%] |
| --- | --- | --- | --- | --- |
| ZGPPISIDLPWYLLRKMIEIEKQEKEKQQAANNRLLLDTI (C-terminal amide) [SEQ ID NO 55] | 11.6 | 92 | 7.95 | 95 |
| ZGPPISIDLPKYLLRKMIEIEKQEKEKQQAANNRLLLDTI (C-terminal amide) [SEQ ID NO 58] | > 100 | 16 | 71.6 | 100 |
| ZGPPISIDLPRYLLRKMIEIEKQEKEKQQAANNRLLLDTI (C-terminal amide) [SEQ ID NO 65] | > 100 | 16 | 67.9 | 64 |
| ZGPPISIDLPTNLLRKMIEIEKQEKEKQQAANNRLLLDTI (C-terminal amide) [SEQ ID NO 59] | > 100 | 10 | > 100 | 27 |
| ZGPPISIDLPTRLLRKMIEIEKQEKEKQQAANNRLLLDTI (C-terminal amide) [SEQ ID NO 60] | > 100 | 8 | > 100 | 44 |
| ZGPPISIDLPIQLLRKMIEIEKQEKEKQQAANNRLLLDTI (C-terminal amide) [SEQ ID NO 78] | > 100 | 6 | 24.6 | 78 |
| ZGPPISIDLPIYLLRKMIEIEKQEKEKQQAANNRLLLDTI (C-terminal amide) [SEQ ID NO 79] | > 100 | 8 | 22.3 | 100 |
| ZGPPISIDLPSYLLRKMIEIEKQEKEKQQAANNRLLLDTI (C-terminal amide) [SEQ ID NO 56] | > 100 | 14 | 50.4 | 87 |
| ZGPPISIDLPTHLLRKMIEIEKQEKEKQQAANNRLLLDTI (C-terminal amide) [SEQ ID NO 74] | > 100 | 7 | 55 | 100 |
| ZGPPISIDLPIELLRKMIEIEKQEKEKQQAANNRLLLDTI (C-terminal amide) [SEQ ID NO 76] | > 100 | 7 | 91.5 | 76 |
| ZGPPISIDLPLHLLRKMIEIEKQEKEKQQAANNRLLLDTI (C-terminal amide) [SEQ ID NO 83] | 52.2 | 96 | 1.91 | 81 |
| ZGPPISIDLPGYLLRKMIEIEKQEKEKQQAANNRLLLDTI (C-terminal amide) [SEQ ID NO 63] | 73.2 | 34 | 67.3 | 100 |
| ZGPPISIDLPIGLLRKMIEIEKQEKEKQQAANNRLLLDTI (C-terminal amide) [SEQ ID NO 75] | > 100 | 5 | > 100 | 52 |
| ZGPPISIDLPFQLLRKMIEIEKQEKEKQQAANNRLLLDTI (C-terminal amide) [SEQ ID NO 84] | 82.2 | 99 | 1.77 | 100 |
| ZGPPISIDLPLELLRKMIEIEKQEKEKQQAANNRLLLDTI (C-terminal amide) [SEQ ID NO 82] | 96.2 | 85 | 10.9 | 90 |
